Results: paper PMC5036782 (Biophysics, 2011)

Assays:
Experiment in all cases: NMR titration; 1H-13C HSQC of selectively [13C]-methyl-Met labelled CaM or variant, Ca2+-bound form compared with the complex with skMLCKp; 20 mM phosphate, 100 mM KCl, 10 mM CaCl2, pH 7.0, 25°C, about 0.6 mM protein, 800 MHz
Conditions in all cases: both partners purified
[1] = target: intact chicken calmodulin (CCM0) (chicken, UniProt P62149 1-149)
[2] = target: CCMΔ4, chicken calmodulin lacking the last four residues (M145 to K148) (chicken, UniProt P62149 1-145)
[3] = target: CCMΔ5, chicken calmodulin lacking the last five residues (M144 to K148) (chicken, UniProt P62149 1-144)

Measured: binding result

KRRWKKNFIAVSAANRFKKISSSGAL
binds: all assays above
